# Reference: the supplement of paper PMC10567573
# ± gives the standard deviation.
# Assay: protein stability index of a GFP-peptide fusion (GPS, HEK-293T) (PSI 1-6); higher = more stable
# Conditions: c terminus: a fixed tail appended
# 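Note: 24-mer peptide tiles fused after GFP, lentivirally expressed, FACS-sorted into six equal bins by GFP/DsRed ratio, decoded by Illumina sequencing, PSI is the read-weighted mean bin number.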
sequence,measurement,setting,value
MAMAVMLYYSNFVLALEERFGVRP [MFSD9],protein stability index,treatment: DMSO,3.3 ± 0.47
same,protein stability index,"treatment: MLN4924 1 uM, 8 h",3.41 ± 0.49
